Results from PMC2597643 (Nature, 2008).
Values joined by “and” are separate entries in the source; they are usually repeats but may differ in a detail not shown here. Identical values can stand only once.

How the values were obtained:
Orai (in HEK-293 cells) = Orai (in HEK-293 cells) (UniProt Q9U6B8); experiment: native gel or EMSA
cross-linking = target: the molecule itself; experiment: cross-linking
[1] = target: the molecule itself; experiment: single-molecule photobleaching

“Orai (in HEK-293 cells) (from UniProt Q9U6B8 1-351) (natural protein)” showed a stoichiometry N (Orai (in HEK-293 cells)) of 2.

B1: HA-tagged Orai (natural protein)
chain: MSVWTTANNSGLETPTKSPITSSVPRAARSSAVITTGNHQQHHFQHVVAAAVAAATSVATGHQFQQQFPLHAHPHPQHHSNSPTGSGSNSNNSAGFQRTSISNSLLQFPPPPPPSSQNQAKPRGHHRTASSSMSQSGEDLHSPTYLSWRKLQLSRAKLKASSKTSALLSGFAMVAMVEVQLDHDTNVPPGMLIAFAICTTLLVAVHMLALMISTCILPNIETVCNLHSISLVHESPHERLHWYIETAWAFSTLLGLILFLLEIAILCWVKFYDLSPPAAWSACVVLIPVMIIFMAFAIHFYRSLVSHKYEVTVSGIRELEMLKEQMEQDHLEHHNNIRNNGMNYGASGDIV
For B1, the “stoichiometry N” value (cross-linking) was 2.

B2: GFP-Flag-Orai (in Xenopus oocytes) (natural protein)
chain: MSVWTTANNSGLETPTKSPITSSVPRAARSSAVITTGNHQQHHFQHVVAAAVAAATSVATGHQFQQQFPLHAHPHPQHHSNSPTGSGSNSNNSAGFQRTSISNSLLQFPPPPPPSSQNQAKPRGHHRTASSSMSQSGEDLHSPTYLSWRKLQLSRAKLKASSKTSALLSGFAMVAMVEVQLDHDTNVPPGMLIAFAICTTLLVAVHMLALMISTCILPNIETVCNLHSISLVHESPHERLHWYIETAWAFSTLLGLILFLLEIAILCWVKFYDLSPPAAWSACVVLIPVMIIFMAFAIHFYRSLVSHKYEVTVSGIRELEMLKEQMEQDHLEHHNNIRNNGMNYGASGDIV
B2 was tested, and the “stoichiometry N” value [1] was 2 and 4.
